Laboratory results: article PMC7473855

Molecular target: SARS-CoV-2 prefusion-stabilized spike ectodomain with a C-terminal T4 fibritin trimerization motif (SARS-CoV-2) (UniProt P0DTC2)
Experiment: cryo-EM structure

Chain of Ty1 nanobody (VHH) (VHH): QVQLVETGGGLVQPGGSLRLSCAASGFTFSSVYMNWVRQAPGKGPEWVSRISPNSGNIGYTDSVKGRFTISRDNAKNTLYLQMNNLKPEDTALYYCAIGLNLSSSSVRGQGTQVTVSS

Ty1 nanobody (VHH)
stoichiometry N (Ty1 per spike trimer): 3
